In general, IC50 refers to the point on the concentration scale where inhibition reaches its midpoint.

The values that follow come from patent US20190177366A1 (published 2019).

Bridge positions count the residues as written; N and C are the ends. Ends that are not written are not given here.

Experiment [1] has as its target T1, proprotein convertase subtilisin/kexin type 9 (PCSK9) (human, UniProt Q8NBP7 31-152). As to the kind of experiment: phage competition ELISA; competing phage pep2-8. (In general: An ELISA detects its analyte on a solid surface through an enzyme-linked reagent.)
The target in experiment [2] is T1, proprotein convertase subtilisin/kexin …. As to the kind of experiment: phage competition ELISA; competing phage K9gvpep4.
Experiment [3] shares this target. In words: competition.

T1 sequence (Q8NBP7 31-152, chain 1 of 2): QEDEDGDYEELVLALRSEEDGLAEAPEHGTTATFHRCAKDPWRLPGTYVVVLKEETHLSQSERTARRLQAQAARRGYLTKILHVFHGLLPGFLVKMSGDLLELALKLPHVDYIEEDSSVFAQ
T1 sequence (Q8NBP7 153-692, chain 2 of 2): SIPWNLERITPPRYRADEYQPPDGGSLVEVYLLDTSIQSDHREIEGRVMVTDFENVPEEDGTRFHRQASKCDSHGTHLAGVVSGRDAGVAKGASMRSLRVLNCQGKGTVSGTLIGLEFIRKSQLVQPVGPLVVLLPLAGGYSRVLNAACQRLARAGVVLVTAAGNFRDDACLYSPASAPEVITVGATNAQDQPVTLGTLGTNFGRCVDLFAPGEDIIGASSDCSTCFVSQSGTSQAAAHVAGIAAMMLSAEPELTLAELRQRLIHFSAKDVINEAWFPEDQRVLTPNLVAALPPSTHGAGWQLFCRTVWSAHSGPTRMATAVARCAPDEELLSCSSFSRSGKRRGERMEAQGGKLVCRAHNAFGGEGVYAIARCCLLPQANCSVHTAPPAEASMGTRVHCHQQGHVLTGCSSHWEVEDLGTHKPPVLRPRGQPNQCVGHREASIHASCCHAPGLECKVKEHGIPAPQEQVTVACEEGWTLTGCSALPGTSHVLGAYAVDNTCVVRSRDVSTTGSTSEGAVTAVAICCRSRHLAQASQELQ

B1: Compound 20 (peptide)
peptide: Ac-TVFTSWEEYLDWVGSGDLMPWNLVRIGLLR-NH2
For B1, the IC50 in experiment [1] was found to be 14.5 nM; in experiment [2], 2.69 nM.

B2: K9gvpep4 (peptide)
peptide: SGCRLPWNLQRIGLPC
modifications: not fully specified (bridges); cysteine pairing not given here
As for B2, the half-maximal inhibitory concentration (IC50) in experiment [3] was found to be 318 nM.

B3: Compound 19 (peptide)
peptide: Ac-TVFTSWEEYLDWVGSGCRLPWNLQRIGLPC-NH2
modifications: disulfide 17-30 (inferred)
For the molecule B3, the half-maximal inhibitory concentration (IC50) in experiment [1] was determined as 6.19 nM; in experiment [2], 3.44 nM.

B4: K9gvpep7 (peptide)
peptide: SGDLMPWNLVRIGLLR
As to B4, the IC50 in experiment [3] is 635 nM.
